Reference: patent US20200277406A1 (ROCHE DIAGNOSTICS OPERATIONS, published 2020)
Where “and” joins values, the source holds several entries; their conditions need not be identical. Identical values can stand only once.

T1: pIGF-1R(1340-1366)[1346-pTyr]amid (phosphotyrosine at 1346 (1346-pTyr); C-terminal amide)
T1 construct: also called pIGF-1R peptide; phosphorylated IGF-1R peptide (free in solution)
T1 peptide: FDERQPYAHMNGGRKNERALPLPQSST

T2: IGF-1R(1340-1366)amid (C-terminal amide)
T2 construct: also called IGF-1R peptide; non-phosphorylated IGF-1R peptide (free in solution)
T2 peptide: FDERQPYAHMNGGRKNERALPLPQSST

T3: IGF-1R(1340-1366); Glu(Bi-PEG-1340]amid (not fully specified; biotin-PEG linker bound via glutamic acid corresponding to position 1340; C-terminal amide)
T3 construct: also called IGF-1R peptide; non-phosphorylated IGF-1R peptide (biotinylated)
T3 peptide: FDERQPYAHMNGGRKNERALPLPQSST

T4: IGF-1R(1340-1366)[1346-pTyr; Glu(Bi-PEG-1340]amid (not fully specified; phosphotyrosine at 1346 (1346-pTyr); biotin-PEG linker bound via glutamic acid corresponding to position 1340; C-terminal amide)
T4 construct: also called pIGF-1R peptide; phosphorylated IGF-1R peptide (biotinylated)
T4 peptide: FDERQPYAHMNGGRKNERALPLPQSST


Key:
[1] = biological target: T1, pIGF-1R(1340-1366)[1346-pTyr]amid; test: SPR (Biacore 3000, SA sensor, 25 °C): ssFab′ hybridised on the captured biotinylated T40-Bi linker (linker 10), peptide injected in solution
Method: (§1) 124 RU amino-PEO-biotin were captured on the reference flow cell 1.
(§2) As a control, buffer was injected instead of the ssFabs.
(§3) The dissociation was monitored at 50 μl/min for 5.3 min. The system was regenerated after each concentration step with a 12 sec pulse of 250 mM NaOH and was reloaded with ssFab′ ligand.

IGF-1R(1340-1366)amid [2] = biological target: T2, IGF-1R(1340-1366)amid; test: as above
Method: as §1, §2, §3

[3] = biological target: T1, pIGF-1R(1340-1366)[1346-pTyr]amid; test: SPR (Biacore 3000, 25 C), dual binder on biotinylated linker on SA chip, peptide in solution; T40-Bi linker (spacer T20-Biotin-dT-T20)
Method: (§4) A BIACORE™ 3000 instrument (GE Healthcare) was used with a BIACORE™ SA sensor mounted into the system at T=25° C. The system was preconditioned at 100 μl/min with 3 ×1 min injection of 1 M NaCl in 50 mM NaOH and 1 min 10 mM HCl.
as §1, §2

[4] = biological target: T1, pIGF-1R(1340-1366)[1346-pTyr]amid; test: SPR (Biacore 3000, 25 C), dual binder on biotinylated linker on SA chip, peptide in solution; T0 linker (no thymidine spacer)
Method: as §4, §1, §2

[5] = biological target: T1, pIGF-1R(1340-1366)[1346-pTyr]amid; test: SPR (Biacore 3000, SA sensor, 25 °C): ssFab′ hybridised on the captured biotinylated T0-Bi 37-mer linker, peptide injected in solution
Method: as §1, §2, §3

IGF-1R(1340-1366)amid [6] = biological target: T2, IGF-1R(1340-1366)amid; test: as above
Method: as §1, §2, §3

[7] = biological target: T3, IGF-1R(1340-1366); Glu(Bi-PEG-1340]amid; test: SPR (Biacore 2000, 25 C), immobilised biotinylated peptide, 100 nM ssFab′ in solution
Method: (§5) Subsequently biotinylated peptides were captured on the SA surface in the respective flow cells. […] Finally all flow cells were saturated with d-biotin.
(§6) Report points were set at the end of the analyte association phase (Binding Late, BL) and at the end of the analyte dissociation phase (Stability Late, SL) to monitor the response unit signal heights of each interaction. The dissociation rates kd (1/s) were calculated according to a linear 1:1 Langmuir fit using the BIACORE™ evaluation software 4.1. The complex halftimes in minutes were calculated upon the formula ln(2)/(60*kd).

[8] = biological target: T4, IGF-1R(1340-1366)[1346-pTyr; …; test: as above
Method: as §5, §6

Row | Binder | Kd [1] | Kd (IGF-1R(1340-1366)amid [2]) | t1/2 diss (IGF-1R(1340-1366)amid [2]) | Kd [3] | Kd [4] | Kd [5] | Kd (IGF-1R(1340-1366)amid [6]) | t1/2 diss (IGF-1R(1340-1366)amid [6]) | T1/2 dis [7] | T1/2 dis [8] | t1/2 diss [5]
1 | T40 dual binding agent (ssFab′ 8.1.2 and ssFab′ 1.4.168 on the T40-Bi linker, linker 10) (bispecific antibody, V domains shown, Fab′ hinge cysteine coupled to ssDNA) VH 1: EVQLQQSGPALVKPGASVKMSCKASGFTFTSYVIHWVKQKPGQGLEWIGYLNPYNDNTKYNEKFKGKATLTSDRSSSTVYMEFSSLTSEDSAVYFCARRGIYAYDHYFDYWGQGTSLTVSS VL 1: QIVLTQSPAIMSASPGEKVTLTCSASSSVNYMYWYQQKPGSSPRLLIYDTSNLASGVPVRFSGSGSVTSYSLTISRMEAEDAATYYCQQWSTYPLTFGAGTKLELK VH 2: QCDVKLVESGGGLVKPGGSLKLSCAASGFTFSDYPMSWVRQTPEKRLEWVATITTGGTYTYYPDSIKGRFTISRDNAKNTLYLQMGSLQSEDAAMYYCTRVKTDLWWGLAYWGQGTLVTVSA VL 2: QLVLTQSSSASFSLGASAKLTCTLSSQHSTYTIEWYQQQPLKPPKYVMELKKDGSHTTGDGIPDRFSGSSSGADRYLSISNIQPEDESIYICGVGDTIKEQFVYVFGGGTKVTVLG | 0.0125 nM | 0.973 nM and 1 nM | 4.3 min | 0.01 nM | – | – | – | – | – | – | –
2 | T0 dual binding agent (ssFab′ 8.1.2 and ssFab′ 1.4.168 on the T0-Bi 37-mer linker) (bispecific antibody, V domains shown, Fab′ hinge cysteine coupled to ssDNA) VH 1: EVQLQQSGPALVKPGASVKMSCKASGFTFTSYVIHWVKQKPGQGLEWIGYLNPYNDNTKYNEKFKGKATLTSDRSSSTVYMEFSSLTSEDSAVYFCARRGIYAYDHYFDYWGQGTSLTVSS VL 1: QIVLTQSPAIMSASPGEKVTLTCSASSSVNYMYWYQQKPGSSPRLLIYDTSNLASGVPVRFSGSGSVTSYSLTISRMEAEDAATYYCQQWSTYPLTFGAGTKLELK VH 2: QCDVKLVESGGGLVKPGGSLKLSCAASGFTFSDYPMSWVRQTPEKRLEWVATITTGGTYTYYPDSIKGRFTISRDNAKNTLYLQMGSLQSEDAAMYYCTRVKTDLWWGLAYWGQGTLVTVSA VL 2: QLVLTQSSSASFSLGASAKLTCTLSSQHSTYTIEWYQQQPLKPPKYVMELKKDGSHTTGDGIPDRFSGSSSGADRYLSISNIQPEDESIYICGVGDTIKEQFVYVFGGGTKVTVLG | – | – | – | – | 0.03 nM | 0.0344 nM | 1.2 nM and 1 nM | 5 min | – | – | –
3 | ssFab′ 1.4.168 (Fab, V domains shown, hinge-region cysteine of the Fab′ coupled via maleimide to a fluorescein-labelled ssDNA oligonucleotide, Fab′ of murine mAb 1.4.168 (pepsin cleavage, cysteamine reduction), 1:1 conjugated to ssDNA; also called fluorescein-ssFab′ 1.4.168; ssFab′ 1.004.168) VH: DVKLVESGGGLVKPGGSLKLSCAASGFTFSDYPMSWVRQTPEKRLEWVATITTGGTYTYYPDSIKGRFTISRDNAKNTLYLQMGSLQSEDAAMYYCTRVKTDLWWGLAYWGQGTLVTVSA VL: QLVLTQSSSASFSLGASAKLTCTLSSQHSTYTIEWYQQQPLKPPKYVMELKKDGSHTTGDGIPDRFSGSSSGADRYLSISNIQPEDESIYICGVGDTIKEQFVYVFGGGTKVTVLG | 2.14 nM and 2 nM | 1.1 nM and 1 nM | 3 min | – | – | 2.59 nM and 3 nM | 1.35 nM and 1 nM | 4 min | 3 min | 3 min | 4 min
